Experiment [1] concerns the target GST-EphA2 (UniProt P29317). The experiment is described as follows: ELISA; 200 ng GST-EphA2 coated on 96-well plates overnight at 4 °C, blocked with 5% BSA in PBS; gradient concentrations of 6×His proteins, 2 h at room temperature; anti-His or anti-GST antibody, HRP secondary, absorbance at 450 nm.
The target of experiment [2] is GST-EphA2 (UniProt P29317). The experiment is described as follows: ELISA; as the ELISA on GST-EphA2-coated plates, gH/gL or gB incubated in the presence of IFITM1 (concentration of IFITM1 not stated). For orientation: An ELISA detects its analyte on a solid surface through an enzyme-linked reagent.
The target of experiment [3] is GST-EphA2 (UniProt P29317). The experiment is described as follows: ELISA; 200 ng GST-EphA2 coated on 96-well plates overnight at 4 °C, blocked with 5% BSA in PBS; gradient concentrations of 6×His proteins, 2 h at room temperature; anti-His or anti-GST antibody, HRP secondary, absorbance at 450 nm. The source holds these as a separate data set.

Where two headings read alike, the source gives them in different places.

Usually EC50 stands for the concentration giving half of the maximal effect. A lower EC50 goes with higher potency in that assay. As to “6×His-gH/gL (from UniProt P03231 19-706; P03212 23-137) (complex)”, the values for the EC50 in experiment [1] and in experiment [3] were 32 nM and 33.5 nM, respectively. The EC50 with IFITM1 in experiment [2] turned out to be 75.7 nM.

In turn, “soluble 6×His-IFITM1 fusion protein (sIFITM1) (from UniProt P13164 1-125) (natural protein)” had an EC50 in experiment [3] of 15.4 nM.
